From publication PMC11670252, “Antibody-mediated clearance of an ER-resident aggregate that causes glaucoma” (PNAS Nexus, 2024)

Molecular target: T1, endogenous full-length myocilin from conditioned media of primary human TM cells (Homo sapiens, UniProt Q99972)
T1 construct: myocilin, human, endogenous, secreted into the medium; called full-length (~55 kDa); also called endogenous full-length myocilin (~55 kDa)
Experiment: immunoprecipitation; antibodies incubated with 15 mL conditioned medium of primary human TM cells without enrichment, or HBS buffer as control; myocilin found by Western blot
Conditions: one partner purified

T1 sequence (Q99972 33-504): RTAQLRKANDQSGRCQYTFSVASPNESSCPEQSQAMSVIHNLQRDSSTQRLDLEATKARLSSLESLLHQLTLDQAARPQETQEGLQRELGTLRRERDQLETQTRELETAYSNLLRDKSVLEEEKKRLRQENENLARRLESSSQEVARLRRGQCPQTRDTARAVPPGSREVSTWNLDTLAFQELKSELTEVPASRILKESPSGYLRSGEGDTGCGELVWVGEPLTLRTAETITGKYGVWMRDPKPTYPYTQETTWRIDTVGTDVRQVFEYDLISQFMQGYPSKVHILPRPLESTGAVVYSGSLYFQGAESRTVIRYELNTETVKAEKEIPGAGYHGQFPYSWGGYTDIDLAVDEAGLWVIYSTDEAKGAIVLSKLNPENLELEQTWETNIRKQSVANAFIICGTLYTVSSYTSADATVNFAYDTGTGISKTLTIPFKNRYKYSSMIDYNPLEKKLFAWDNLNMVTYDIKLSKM

binding result: binds
B1: anti-OLF1 chimeric IgG (murine variable domains, human IgG1/kappa constant domains) (antibody, V domains shown)
VH: QVQLQQSGPELVKPGASVKISCKTSGYTFTENTMHWVRQSHGKSLEWIGGIHPNNIGSTYNQKFKGKATLTVDKSSSTAYMELRSLTSEDSAVYYCTRGATAPFAYWGQGTLVTVSA
VL: DIVMTQTPLSLPVSLGDQASISCRSSQSIVHSNGNTYLHWYQQKSGQSPKLLIYKVSNRFSGVPDRFSGSGSGTDFTLKISRVEAEDLGVYFCSQSTHVPPTFGGGTKLEIK
